What all share (settings): protein: recombinant; tags: N-terminal 7xHis (pQTEV); blunt
In data set [1] the target is T1, TraN_G100A-K101A (Enterococcus faecalis plasmid pIP501, UniProt Q7BVV5 1-122, G100A;K101A). The data set can be described thus: MST; no sigmoidal fit possible up to 12.8 uM DNA; extremely low affinity; MST in PBS-T (pH and temperature not stated); 50 nM RED-tris-NTA labelled His-protein, dsDNA 0.781 nM to 12.8 uM; Monolith NT.115, 60% LED and MST power.
The target in data set [2] is T2, TraN_H82A-R86A (Enterococcus faecalis plasmid pIP501, UniProt Q7BVV5 1-122, H82A;R86A). The data set is described as above.
Data set [3] deals with T1, TraN_G100A-K101A. The data set can be described thus: MST; MST in PBS-T (pH and temperature not stated); 50 nM RED-tris-NTA labelled His-protein, dsDNA 0.781 nM to 12.8 uM; Monolith NT.115, 60% LED and MST power.
The target in a further data set is TraN (Enterococcus faecalis plasmid pIP501, UniProt Q7BVV5 1-122). The description is as above.
The target of another data set is TraN_G47A-G48A (Enterococcus faecalis plasmid pIP501, UniProt Q7BVV5 1-122, G47A;G48A). Described as above.
The target in another data set is TraN_R23A-N24A-Q28A (Enterococcus faecalis plasmid pIP501, UniProt Q7BVV5 1-122, R23A;N24A;Q28A). The data set is described as above.
Data set [4] addresses T2, TraN_H82A-R86A. The description is as above.

For orientation: Kd means the concentration at which binding is half-saturated.

B1: random DNA 34-mer (dsDNA)
DNA 1: AGGGCGCACTTATACGCAGTAACTTCGTTACTTC
DNA 2: GAAGTAACGAAGTTACTGCGTATAAGTGCGCCCT
Take B1: the binding result in the data set with TraN_G100A-K101A [1] and with TraN_H82A-R86A [2] was “no binding” in each case.

B2: oBS 34-mer (original TraN binding site) (dsDNA)
DNA 1: CGGAAATGTCAGGTTAAACATATTTACTTTTATA
DNA 2: TATAAAAGTAAATATGTTTAACCTGACATTTCCG
For B2, the Kd in the data set with TraN_G100A-K101A [3] is 406 ± 45.5 nM; with TraN, 11.7 ± 2.65 nM; in the data set with TraN_G47A-G48A, 48.8 ± 9.75 nM; in the data set with TraN_R23A-N24A-Q28A it was 154 ± 19.5 nM; with TraN_H82A-R86A [4] it was 425 ± 102 nM.

These data come from article PMC10877727, “Effect of TraN key residues involved in DNA binding on pIP501 transfer rates in Enterococcus faecalis”.
